In US20130336924A1 (ALKERMES, published 2013):

T1: IL-6Rα on HEK-Blue IL-6 cells (human, UniProt P08887 20-468)
T1 sequence (looked up): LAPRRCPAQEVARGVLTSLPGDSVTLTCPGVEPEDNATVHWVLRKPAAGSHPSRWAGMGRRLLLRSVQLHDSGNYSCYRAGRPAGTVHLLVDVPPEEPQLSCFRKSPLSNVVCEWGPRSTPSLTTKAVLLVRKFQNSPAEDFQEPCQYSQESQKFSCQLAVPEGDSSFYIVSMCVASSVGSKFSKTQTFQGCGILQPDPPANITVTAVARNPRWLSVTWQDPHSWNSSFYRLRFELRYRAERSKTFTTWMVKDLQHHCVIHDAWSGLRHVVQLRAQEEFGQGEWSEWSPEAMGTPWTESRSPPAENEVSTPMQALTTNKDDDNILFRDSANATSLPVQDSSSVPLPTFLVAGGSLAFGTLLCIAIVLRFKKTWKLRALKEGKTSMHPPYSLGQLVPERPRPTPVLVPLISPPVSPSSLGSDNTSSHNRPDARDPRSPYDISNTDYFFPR

T2: gp130 on HEK-Blue IL-6 cells (human, UniProt P40189 23-918)
T2 sequence: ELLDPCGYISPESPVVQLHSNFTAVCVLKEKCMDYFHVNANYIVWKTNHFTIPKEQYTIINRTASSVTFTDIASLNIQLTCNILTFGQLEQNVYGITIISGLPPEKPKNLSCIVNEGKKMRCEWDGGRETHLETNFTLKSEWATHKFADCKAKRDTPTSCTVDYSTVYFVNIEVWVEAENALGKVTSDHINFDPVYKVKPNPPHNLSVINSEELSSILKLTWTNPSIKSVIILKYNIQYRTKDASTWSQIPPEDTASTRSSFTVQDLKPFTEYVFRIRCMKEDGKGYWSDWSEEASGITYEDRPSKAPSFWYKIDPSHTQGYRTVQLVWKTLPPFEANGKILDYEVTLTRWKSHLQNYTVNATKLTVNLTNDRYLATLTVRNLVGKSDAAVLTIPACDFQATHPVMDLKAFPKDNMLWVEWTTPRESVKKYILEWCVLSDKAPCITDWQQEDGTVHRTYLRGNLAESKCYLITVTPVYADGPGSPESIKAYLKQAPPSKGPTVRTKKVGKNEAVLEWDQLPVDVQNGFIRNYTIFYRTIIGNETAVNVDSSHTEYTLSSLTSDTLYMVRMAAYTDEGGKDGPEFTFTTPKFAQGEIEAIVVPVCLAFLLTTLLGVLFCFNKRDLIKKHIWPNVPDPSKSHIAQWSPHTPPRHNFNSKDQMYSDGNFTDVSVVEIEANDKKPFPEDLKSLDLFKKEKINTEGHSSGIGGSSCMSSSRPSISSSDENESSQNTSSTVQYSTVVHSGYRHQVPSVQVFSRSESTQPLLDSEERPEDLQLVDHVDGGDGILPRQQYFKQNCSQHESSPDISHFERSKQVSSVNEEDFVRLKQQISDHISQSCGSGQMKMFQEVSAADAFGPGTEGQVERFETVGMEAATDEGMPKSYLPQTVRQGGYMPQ

B1: RDB1503 (ligand)
chain: QNQWLQDMTTHLILRSFKEFLQSSLRALRQMSGGSGGGSSERIDKQIRYILDGISALRKETCNKSNMCESSKEALAENNLNLPKMAEKDGCFQSGFNEETCLVKIITGLLEFEVYLEYLQNRFESSEEQARAVQMSTKVLIQFLQKKAKNLDAITTPDPTTNASLLTKLQ

Legend:
[1] = molecular target: T1, IL-6Rα on HEK-Blue IL-6 cells; assay: cell-based or functional assay
[2] = molecular target: T2, gp130 on HEK-Blue IL-6 cells; assay: cell-based or functional assay

Row | Molecule | EC50, IL-6-induced SEAP reporter in HEK-Blue IL-6 cells (agonist activity) [1] [pM] | EC50, IL-6-induced SEAP reporter in HEK-Blue IL-6 cells (agonist activity) [2] [pM]
1 | IL-6 (from UniProt P05231 30-212) (ligand) | 1 | 
2 | B1 | ~0.6 | ~0.6
